Source: US20220143148A1, “COMPOSITIONS AND METHODS FOR MODULATING CGRP SIGNALING TO REGULATE INTESTINAL INNATE LYMPHOID CELLS” (The Broad Institute, Inc., priority 2019, published 2022)

Test system: small intestinal immune cells
Assay: Droplet-based scRNA-seq of small intestinal immune cells (LP and PP), OVA vs PBS, clustering and differential expression
Format: in vivo, mouse
From the text: To comprehensively characterize small intestinal immune cells, Applicants generated scRNA-Seq profiles for 58,067 immune cells collected from lamina propria (LP) and Peyer's patch (PP) regions at steady state and after induction of a type 2 inflammatory reaction to ovalbumin (OVA) (Brandt et al., 2003) (FIGS. 1A and 8A). To ensure sufficient representation of rare cells, Applicants combined a normalization strategy—removing by flow sorting either a portion of IgD+ naïve B cells, which are the most abundant cell type in PPs, or all CD19+ and CD3+ T cells (FIG. 8B, Methods)—with profiling of a sufficiently large number of cells number (P>0.99 to recover at least 15 cells from each cluster, Methods) by massively parallel scRNA-seq (Haber et al., 2017) (Methods). Applicants obtained 36,797 and 21,270 high quality cells passing initial filtering (Methods) from PP and LP regions, respectively.
Overall, Applicants annotated 27 cell subsets across the two compartments, spanning T cells, B cells, ILCs, dendritic cells (DCs), myeloid cells and stromal cells, in frequencies ranging from 0.07% to 14%. Briefly, Applicants first partitioned the cells from the PP regions by unsupervised clustering (Methods) into 46 clusters, retained the 97% of cells that were robustly assigned cell identities in each cluster (Methods), assigned the cells from the LP regions to the 46 clusters using a classifier (Methods), and visualized the data with scvis (Ding et al., 2018), a deep generative model-based method (FIGS. 1B and 8C, Methods). Next, Applicants identified genes that were differentially expressed between the cells in each cluster and the remaining cells (Table 1, Methods), as well as between pairs of clusters (Table 2), to elucidate identities of similar cell types/states. Applicants excluded from downstream analysis clusters mostly consisting of contaminants from epithelium, likely doublets, or cells with a small number of Unique Molecular Identifiers (UMIs) (FIGS. 1C and 8D), or lacking distinct markers (Methods). Altogether, Applicants retained 27 clusters spanning 85% of the cells and each associated with distinct marker genes (FIG. 8E, Methods).
To induce allergic reaction to OVA, 6 to 7 weeks old mice were sensitized twice, two weeks apart, with 50 μg of OVA plus 1 mg of aluminum potassium sulfate adjuvant via intraperitoneal injection. Two weeks later, mice were orally administered with 50 mg of OVA on every other day for a total of five times. 1 μg of α-CGRP peptide was administered simultaneously when indicated. Mice were deprived of food for 3-4 hours in cages with wood chip bedding for limiting antigen degradation in the stomach before each intragastric challenge.
Isolation of cells from Peyer's patches (PPs). Peyer's patches (PPs) were carefully dissected from the small intestine under a stereo microscope using a fine scissor, pierced once with a fine forcep. Tissues were digested in freshly made digestion buffer (RPMI-1640 containing 100 μg/ml Liberase™ and 50 μg/ml DNase I at 37° C. on a roto-mixer. After 15 min, tissues were very gently mixed using a 1 ml pipette. The supernatant was collected and added to ice-cold MACS buffer (pH 7.4; PBS plus 2% FCS and 2 mM EDTA). Pre-warmed (37° C.) fresh digestion buffer was added to the remaining tissues. After rotation at 37° C. for 15 min, the mixture was vigorously mixed using a 1 ml pipette for 1 min. Supernatants from the two steps were combined and passed through 70 μm filters and stained for FACS (below).
Isolation of cells from the lamina propria (LP). The small intestines were opened longitudinally and washed in ice-cold PBS. For scRNA-seq, roughly 0.5 cm of fragments from each of the distal, middle and proximal regions without visible PPs were collected. Epithelial cells were dissociated by tissue rotation in pre-warmed (37° C.) PBS containing 10 mM EDTA at 37° C. for 15 min, followed by additional incubation on ice for 15 min. Tissues were then shaken vigorously. […]

B1: OVA (protein, UniProt P01012 2-386, looked up)
Ovalbumin: GSIGAASMEFCFDVFKELKVHHANENIFYCPIAIMSALAMVYLGAKDSTRTQINKVVRFDKLPGFGDSIEAQCGTSVNVHSSLRDILNQITKPNDVYSFSLASRLYAEERYPILPEYLQCVKELYRGGLEPINFQTAADQARELINSWVESQTNGIIRNVLQPSSVDSQTAMVLVNAIVFKGLWEKAFKDEDTQAMPFRVTEQESKPVQMMYQIGLFRVASMASEKMKILELPFASGTMSMLVLLPDEVSGLEQLESIINFEKLTEWTSSNVMEERKIKVYLPRMKMEEKYNLTSVLMAMGITDVFSSSANLSGISSAESLKISQAVHAAHAEINEAGREVVGSAEAGVDAASVSEEFRADHPFLFCIKHIATNAVLFFGRCVSP
- D16Ertd472e: LN (average fold change) (cluster ID 4, PP, OVA vs PBS): −0.412
- Dnaja1: LN (average fold change) (cluster ID 4, PP, OVA vs PBS): −0.300
- Dnajb9: LN (average fold change) (cluster ID 4, PP, OVA vs PBS): −0.322
- Egln3: LN (average fold change) (cluster ID 4, PP, OVA vs PBS): −0.350
- Fam46a: LN (average fold change) (cluster ID 4, PP, OVA vs PBS): −0.500
- Fibp: LN (average fold change) (cluster ID 4, PP, OVA vs PBS): −0.268
- Furin: LN (average fold change) (cluster ID 4, PP, OVA vs PBS): −0.203
- Gatad1: LN (average fold change) (cluster ID 4, PP, OVA vs PBS): −0.316
- Gcnt2: LN (average fold change) (cluster ID 4, PP, OVA vs PBS): −0.352
- Gimap3: LN (average fold change) (cluster ID 4, PP, OVA vs PBS): 0.275
- Git2: LN (average fold change) (cluster ID 4, PP, OVA vs PBS): 0.350
- Gnb1: LN (average fold change) (cluster ID 4, PP, OVA vs PBS): −0.255
- H2-T23: LN (average fold change) (cluster ID 4, PP, OVA vs PBS): −0.260
- Herpud1: LN (average fold change) (cluster ID 4, PP, OVA vs PBS): −0.214
- Icos: LN (average fold change) (cluster ID 4, PP, OVA vs PBS): −0.291
- Il2ra: LN (average fold change) (cluster ID 4, PP, OVA vs PBS): 0.378
- Il18r1: LN (average fold change) (cluster ID 4, PP, OVA vs PBS): 0.193
- Irf2: LN (average fold change) (cluster ID 4, PP, OVA vs PBS): 0.312
- Irs2: LN (average fold change) (cluster ID 4, PP, OVA vs PBS): −0.372
- Itgav: LN (average fold change) (cluster ID 4, PP, OVA vs PBS): −0.394
- Klf13: LN (average fold change) (cluster ID 4, PP, OVA vs PBS): −0.255
- Klrk1: LN (average fold change) (cluster ID 4, PP, OVA vs PBS): −0.613
- Leng9: LN (average fold change) (cluster ID 4, PP, OVA vs PBS): −0.375
- Map3k14: LN (average fold change) (cluster ID 4, PP, OVA vs PBS): −0.515
- Mast4: LN (average fold change) (cluster ID 4, PP, OVA vs PBS): −0.207
- Mbnl2: LN (average fold change) (cluster ID 4, PP, OVA vs PBS): −0.436
- Minos1: LN (average fold change) (cluster ID 4, PP, OVA vs PBS): 0.218
- Morf4l2: LN (average fold change) (cluster ID 4, PP, OVA vs PBS): −0.252
- Neat1: LN (average fold change) (cluster ID 4, PP, OVA vs PBS): 0.447
- Nedd8: LN (average fold change) (cluster ID 4, PP, OVA vs PBS): 0.234
- Plekhg1: LN (average fold change) (cluster ID 4, PP, OVA vs PBS): −0.229
- Ppp1r16b: LN (average fold change) (cluster ID 4, PP, OVA vs PBS): −0.157
- Ppp2ca: LN (average fold change) (cluster ID 4, PP, OVA vs PBS): −0.432
- Ptger2: LN (average fold change) (cluster ID 4, PP, OVA vs PBS): 0.347
- Ptpn7: LN (average fold change) (cluster ID 4, PP, OVA vs PBS): 0.323
- Raf1: LN (average fold change) (cluster ID 4, PP, OVA vs PBS): 0.457
- Ramp3: LN (average fold change) (cluster ID 4, PP, OVA vs PBS): −0.380
- Rassf5: LN (average fold change) (cluster ID 4, PP, OVA vs PBS): 0.506
- Rcn2: LN (average fold change) (cluster ID 4, PP, OVA vs PBS): −0.225
- Rel: LN (average fold change) (cluster ID 4, PP, OVA vs PBS): −0.354
- Rgs1: LN (average fold change) (cluster ID 4, PP, OVA vs PBS): −0.221
- Rgs3: LN (average fold change) (cluster ID 4, PP, OVA vs PBS): 0.447
- Rnf19b: LN (average fold change) (cluster ID 4, PP, OVA vs PBS): −0.242
- Rpa3: LN (average fold change) (cluster ID 4, PP, OVA vs PBS): 0.541
- S100a6: LN (average fold change) (cluster ID 4, PP, OVA vs PBS): 0.370
- S100a10: LN (average fold change) (cluster ID 4, PP, OVA vs PBS): 0.215
- Saraf: LN (average fold change) (cluster ID 4, PP, OVA vs PBS): −0.187
- Sat1: LN (average fold change) (cluster ID 4, PP, OVA vs PBS): 0.222
- Scn1b: LN (average fold change) (cluster ID 4, PP, OVA vs PBS): −0.273
- Sec11a: LN (average fold change) (cluster ID 4, PP, OVA vs PBS): 0.283
- Serpina3g: LN (average fold change) (cluster ID 4, PP, OVA vs PBS): 0.347
- Serpinb6b: LN (average fold change) (cluster ID 4, PP, OVA vs PBS): −0.432
- Ssna1: LN (average fold change) (cluster ID 4, PP, OVA vs PBS): 0.346
- Taf7: LN (average fold change) (cluster ID 4, PP, OVA vs PBS): −0.409
- Taf10: LN (average fold change) (cluster ID 4, PP, OVA vs PBS): −0.422
- Tagap: LN (average fold change) (cluster ID 4, PP, OVA vs PBS): 0.423
- Tcrg-C1: LN (average fold change) (cluster ID 4, PP, OVA vs PBS): 0.484
- Tgoln1: LN (average fold change) (cluster ID 4, PP, OVA vs PBS): −0.209
- Timm13: LN (average fold change) (cluster ID 4, PP, OVA vs PBS): 0.230
- Tnf: LN (average fold change) (cluster ID 4, PP, OVA vs PBS): 0.465
- Trim8: LN (average fold change) (cluster ID 4, PP, OVA vs PBS): 0.530
- Trps1: LN (average fold change) (cluster ID 4, PP, OVA vs PBS): −0.444
- Tsc22d3: LN (average fold change) (cluster ID 4, PP, OVA vs PBS): 0.359
- Tspan32: LN (average fold change) (cluster ID 4, PP, OVA vs PBS): 0.324
- Ttc19: LN (average fold change) (cluster ID 4, PP, OVA vs PBS): −0.499
- Tuba4a: LN (average fold change) (cluster ID 4, PP, OVA vs PBS): −0.342
- Tubb4b: LN (average fold change) (cluster ID 4, PP, OVA vs PBS): −0.252
- Txk: LN (average fold change) (cluster ID 4, PP, OVA vs PBS): −0.188
- Vegfa: LN (average fold change) (cluster ID 4, PP, OVA vs PBS): −0.252
- VgIl4: LN (average fold change) (cluster ID 4, PP, OVA vs PBS): −0.302
- Zc3hav1: LN (average fold change) (cluster ID 4, PP, OVA vs PBS): −0.303
- Zfand5: LN (average fold change) (cluster ID 4, PP, OVA vs PBS): −0.245
- 1810037l17Rik: percentage of expressing cells in OVA-treated group (cluster ID 5, PP): 0.446
- Bcl2: percentage of expressing cells in OVA-treated group (cluster ID 5, PP): 0.863
